Reference: US7786356B2, “Method for the production of calendic acid, a fatty acid containing delta 8,10,12 conjugated double bonds and related fatty acids having a modification at the delta 9 position” (E.I. du Pont de Nemours and Company, priority 1999, dated 2010)

System: somatic soybean embryos
Assay: Production of calendic acid in somatic soybean embryos expressing CalFad2-1 or CalFad2-2
Type: cell-based
Settings: single somatic embryos
Excerpt: The open-reading frames of these cDNAs were amplified by PCR in order generate the appropriate flanking restriction enzyme sites for cloning into the soybean expression vector. The oligonucleotide primers used for amplification of the CalFad2-1 open-reading frame were: 5′-ttgcggccgc[…]-3′ (sense, SEQ ID NO:18) and 5′-ttgcggccg[…]-3′ (antisense, SEQ ID NO:19). The oligonucleotide primers used for amplification of the CalFad2-2 coding sequence were: 5′-agcggccgcTATACCATGGGCAAG-3′ (sense, SEQ ID NO:20) and 5′-tgcggccgcTATGTTAAACTTC-3′ (antisense, SEQ ID NO:21). [Note: The sequences shown in lower case contain an added NotI site along with additional bases to facilitate restriction enzyme digestion.] The template was the cDNA corresponding to either EST ecs1c.pk009.n14 (CalFad2-1) or EST ecs1c.pk08.a24 (CalFad2-2), and Pfu polymerase (Stratagene) was used for the amplification reactions. The resulting PCR products were subcloned into the intermediate vector pCR-Script AMP SK(+) (Stratagene) according to the manufacturer's protocol. The amplified CalFad2-1 and CalFad2-2 coding sequences were then released with NotI digestion and then subcloned into the corresponding site of the soybean expression vector pKS67.
The PCR amplified coding sequences of CalFad2-1 and CalFa2-2 were fused with the β-conglycinin promoter and phaseolin termination sequences in vector pKS67 was transformed into somatic soybean embryos as follows. To induce somatic embryos, cotyledons, 3-5 mm in length dissected from surface sterilized, immature seeds of a soybean cultivar A2872 or JACK-910 were cultured in the light or dark at 26° C. on an appropriate agar medium for 6-10 weeks. Somatic embryos that produce secondary embryos were then excised and placed into a suitable liquid medium. After repeated selection for clusters of somatic embryos that multiplied as early, globular staged embryos, the suspensions were maintained as described below.
Soybean embryogenic suspension cultures were maintained in 35 mL liquid media on a rotary shaker, 150 rpm, at 26° C. with florescent lights on a 16:8 hour day/night schedule. Cultures were subcultured every two weeks by inoculating approximately 35 mg of tissue into 35 mL of liquid medium.
Soybean embryogenic suspension cultures were then transformed with the vector pKS67 containing the coding sequence for CalFad2-1 and CalFad2-2 by the method of particle gun bombardment (Klein et al. (1987) Nature (London) 327:70, U.S. Pat. No. 4,945,050). A Du Pont Biolisticä PDS1000/HE instrument (helium retrofit) was used for these transformations.
To […] of a 60 mg/mL […] gold particle suspension were added (in order): 5 mL DNA (1 mg/mL), 20 ml spermidine (0.1 M), and […] CaCl2 (2.5 M). The particle preparation was then agitated for three minutes, spun in a microfuge for 10 seconds and the supernatant removed. The DNA-coated particles were then washed once in 400 mL 70% ethanol and resuspended in 40 mL of anhydrous ethanol. The DNA/particle suspension was sonicated three times for one second each. Five mL of the DNA-coated gold particles was then loaded on each macro carrier disk.
Approximately 300-400 mg of a two-week-old suspension culture was placed in an empty 60×15-mm petri dish and the residual liquid removed from the tissue with a pipette. For each transformation experiment, approximately 5 to 10 plates of tissue were bombarded. Membrane rupture pressure was set at 1100 psi and the chamber was evacuated to a vacuum of 28 inches mercury. The tissue was placed approximately 3.5 inches away from the retaining screen and bombarded three times. Following bombardment, the tissue was divided in half and placed back into liquid and cultured as described above.
Five to seven days post bombardment, the liquid media was exchanged with fresh media, and eleven to twelve days post bombardment with fresh media containing […] hygromycin. This selective media was refreshed weekly. […]

[1] = n = 5, ± standard deviation, weight % of total fatty acids

B1: CalFad2-1: Calendula officinalis fatty acid modifying enzyme (cDNA SEQ ID NO:1, protein SEQ ID NO:2) forming conjugated double bonds at delta-9 position (protein, listed as Calendula officinalis)
chain: MGKGASNKKVLERVPITKPPFEYNDLKKAVPPHCFSRPLFRSFYFLLHDIIVTCILFYVASNYIPMLPGFLSYIVWPVYWISQGVFLGRLWMIGHECGHHSFSNYRWVDDSVGFLIHTATLTPYFSFKYSHRNHHAHTNSMEYDEVHIPKRKSEALDLYFEFLGNNPMGLMITMLCKLTFGYAAYIMFNYTGKKHKSGGLASHFYPQSPLFNDSERNHVLFSDVGICIVLYACYRIVMVTGAMSAFYVYGIPWVIMSAILFAATYLQHTHPSIPHYDTTEWNWLRGALSTIDRDLGFFNMNKTHYHVIHHLFPVIPEYHAQEATEAIKPILGQYYKYDGTPFLKALWREMKDCIYVESDQGQKKQGIYWFKNKI
- Other, Fatty Acid Weight % (n = 5, weight % of total fatty acids): ≦1.3 Weight %
- 16:0, Fatty Acid Weight % [1]: 12.2 ± 1.0 Weight %
- 18:0, Fatty Acid Weight % [1]: 3.5 ± 0.9 Weight %
- 18:1, Fatty Acid Weight % [1]: 9.0 ± 1.5 Weight %
- 18:2, Fatty Acid Weight % [1]: 52.2 ± 2.4 Weight %
- 18:3, Fatty Acid Weight % [1]: 18.8 ± 3.0 Weight %
- Calendic Acid, Fatty Acid Weight % [1]: 3.1 ± 1.0 Weight %
